Reference: publication PMC5498496

Legend:
[1] = αVβ3 cell surface expression, flow cytometry; conditions: glycan lost; control: wild-type αV with β3
[2] = αIIbβ3 cell surface expression, flow cytometry; conditions: glycan lost; control: wild-type β3 with αIIb
[3] = surface expression by mAbs 10E5, AP2, AP3, flow cytometry; conditions: glycan lost; control: wild-type αIIbβ3
[4] = eptifibatide-induced mAb binding, flow cytometry; conditions: glycan lost; control: wild-type β3 with αIIb

B1: integrin αV subunit: αV-N950Q (protein)
parent chain: MAFPPRRRLRLGPRGLPLLLSGLLLPLCRAFNLDVDSPAEYSGPEGSYFGFAVDFFVPSASSRMFLLVGAPKANTTQPGIVEGGQVLKCDWSSTRRCQPIEFDATGNRDYAKDDPLEFKSHQWFGASVRSKQDKILACAPLYHWRTEMKQEREPVGTCFLQDGTKTVEYAPCRSQDIDADGQGFCQGGFSIDFTKADRVLLGGPGSFYWQGQLISDQVAEIVSKYDPNVYSIKYNNQLATRTAQAIFDDSYLGYSVAVGDFNGDGIDDFVSGVPRAARTLGMVYIYDGKNMSSLYNFTGEQMAAYFGFSVAATDINGDDYADVFIGAPLFMDRGSDGKLQEVGQVSVSLQRASGDFQTTKLNGFEVFARFGSAIAPLGDLDQDGFNDIAIAAPYGGEDKKGIVYIFNGRSTGLNAVPSQILEGQWAARSMPPSFGYSMKGATDIDKNGYPDLIVGAFGVDRAILYRARPVITVNAGLEVYPSILNQDNKTCSLPGTALKVSCFNVRFCLKADGKGVLPRKLNFQVELLLDKLKQKGAIRRALFLYSRSPSHSKNMTISRGGLMQCEELIAYLRDESEFRDKLTPITIFMEYRLDYRTAADTTGLQPILNQFTPANISRQAHILLDCGEDNVCKPKLEVSVDSDQKKIYIGDDNPLTLIVKAQNQGEGAYEAELIVSIPLQADFIGVVRNNEALARLSCAFKTENQTRQVVCDLGNPMKAGTQLLAGLRFSVHQQSEMDTSVKFDLQIQSSNLFDKVSPVVSHKVDLAVLAAVEIRGVSSPDHVFLPIPNWEHKENPETEEDVGPVVQHIYELRNNGPSSFSKAMLHLQWPYKYNNNTLLYILHYDIDGPMNCTSDMEINPLRIKISSLQTTEKNDTVAGQGERDHLITKRDLALSEGDIHTLGCGVAQCLKIVCQVGRLDRGKSAILYVKSLLWTETFMNKENQNHSYSLKSSASFNVIEFPYKNLPIEDITNSTLVTTNVTWGIQPAPMPVPVWVIILAVLAGLLLLAVLVFVMYRMGFFKRVRPPQEEQEREQLQPHENGEGNSET
For B1, the expression_or_secretion [1] was “decreases”.

B2: integrin αV subunit: αV-N458Q (protein)
parent chain: B1 parent chain
For B2, the expression_or_secretion [1] was “no change”.

B3: integrin β3 subunit: β3-N320Q-N559Q (protein)
parent chain: MRARPRPRPLWATVLALGALAGVGVGGPNICTTRGVSSCQQCLAVSPMCAWCSDEALPLGSPRCDLKENLLKDNCAPESIEFPVSEARVLEDRPLSDKGSGDSSQVTQVSPQRIALRLRPDDSKNFSIQVRQVEDYPVDIYYLMDLSYSMKDDLWSIQNLGTKLATQMRKLTSNLRIGFGAFVDKPVSPYMYISPPEALENPCYDMKTTCLPMFGYKHVLTLTDQVTRFNEEVKKQSVSRNRDAPEGGFDAIMQATVCDEKIGWRNDASHLLVFTTDAKTHIALDGRLAGIVQPNDGQCHVGSDNHYSASTTMDYPSLGLMTEKLSQKNINLIFAVTENVVNLYQNYSELIPGTTVGVLSMDSSNVLQLIVDAYGKIRSKVELEVRDLPEELSLSFNATCLNNEVIPGLKSCMGLKIGDTVSFSIEAKVRGCPQEKEKSFTIKPVGFKDSLIVQVTFDCDCACQAQAEPNSHRCNNGNGTFECGVCRCGPGWLGSQCECSEEDYRPSQQDECSPREGQPVCSQRGECLCGQCVCHSSDFGKITGKYCECDDFSCVRYKGEMCSGHGQCSCGDCLCDSDWTGYYCNCTTRTDTCMSSNGLLCSGRGKCECGSCVCIQPGSYGDTCEKCPTCPDACTFKKECVECKKFDRGALHDENTCNRYCRDEIESVKELKDTGKDAVNCTYKNEDDCVVRFQYYEDSSGKSILYVVEEPECPKGPDILVVLLSVMGAILLIGLAALLIWKLLITIHDRKEFAKFEEERARAKWDTANNPLYKEATSTFTNITYRGT
For B3, the expression_or_secretion [2] was “decreases”.

B4: integrin β3 subunit: β3-N320S (protein)
parent chain: B3 parent chain
With B4 the expression_or_secretion [2] was “decreases”.

B5: integrin β3 subunit: β3-N320R (protein)
parent chain: B3 parent chain
In the case of B5, the expression_or_secretion [3] is reported as “no change” and the structure_or_conformation [4] is reported as “decreases”.

B6: integrin β3 subunit: β3-N559Q (protein)
parent chain: B3 parent chain
In the case of B6, the expression_or_secretion [3] is reported as “no change” and the structure_or_conformation [4] is reported as “decreases”.

B7: integrin αV subunit: αV-N943Q (protein)
parent chain: B1 parent chain
For B7, the expression_or_secretion [1] was “decreases”.
